Substitutions are numbered along the chain they refer to. In names and notes the source's numbering stands.
T1: CD79b on the surface of B-cell non-Hodgkin's lymphoma cells (human, UniProt P40259 29-229)
T1 construct: whole, on cells; Endogenous CD79b of the cell lines; on cells it stands in the B cell receptor complex with CD79a; also called CD79b on Ramos cells; CD79b on BJAB cells
T1 sequence (looked up): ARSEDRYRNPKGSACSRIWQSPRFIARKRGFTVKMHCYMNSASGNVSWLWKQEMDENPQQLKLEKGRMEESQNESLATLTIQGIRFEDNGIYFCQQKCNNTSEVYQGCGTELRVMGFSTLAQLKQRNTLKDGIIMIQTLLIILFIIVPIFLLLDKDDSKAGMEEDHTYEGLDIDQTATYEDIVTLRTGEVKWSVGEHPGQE

T2: monkey CD3E & CD3G-biotin (Sino biological) (cynomolgus monkey, UniProt Q95LI5 22-117; Q95LI7 23-113, limits assumed)
T2 construct: also called Cyno CD3E&G; monkey CD3E&G
T2 sequence (looked up) 1: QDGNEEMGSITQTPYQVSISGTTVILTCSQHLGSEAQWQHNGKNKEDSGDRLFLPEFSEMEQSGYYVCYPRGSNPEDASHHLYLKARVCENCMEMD
T2 sequence (looked up) 2: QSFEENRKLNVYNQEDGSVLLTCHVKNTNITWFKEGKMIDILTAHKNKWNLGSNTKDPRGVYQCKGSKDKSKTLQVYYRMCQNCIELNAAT

T3: human CD79b-his (Sino biological) (human, UniProt P40259 29-159)
T3 construct: Amine-coupled to the Biacore chip (about 50 RU); not shown: His tag
T3 sequence (looked up): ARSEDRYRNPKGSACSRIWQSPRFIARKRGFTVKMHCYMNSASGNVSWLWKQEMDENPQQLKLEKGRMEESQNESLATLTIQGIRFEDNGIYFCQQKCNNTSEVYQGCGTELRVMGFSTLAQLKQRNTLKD

B1: CD79b.A7v14b/38E4v1 (bispecific antibody, human IgG1, kappa, L234A L235A)
heavy 1: not shown
light 1: DIVMTQTPLSLPVTPGQPASISCKSSQSLLDSDGKTYLNWLLQKPGQSPQSLIYLVSKLDSGVPDRFSGSGSGTDFTLKISRVEAEDVGVYYCWQGTHFPQTFGQGTKVEIKRTVAAPSVFIFPPSDEQLKSGTASVVCLLNNFYPREAKVQWKVDNALQSGNSQESVTEQDSKDSTYSLSSTLTLSKADYEKHKVYACEVTHQGLSSPVTKSFNRGEC
heavy 2: not shown
light 2: not shown
notes: also called CD79b.A7v14b x 38E4v1
B2: 38D9B3.11/sp34.87 (bispecific antibody, human IgG1, kappa, lambda, L234A L235A)
heavy 1: not shown
light 1: EIVLTQSPATLSLSPGERATLSCKASQSVDHDVDSYMDWYQQKPGQAPRLLIYSASNLESGIPARFSGSGSGTDFTLTISSLEPEDFAVYYCQQINEYPYTFGGGTKVEIKRTVAAPSVFIFPPSDEQLKSGTASVVCLLNNFYPREAKVQWKVDNALQSGNSQESVTEQDSKDSTYSLSSTLTLSKADYEKHKVYACEVTHQGLSSPVTKSFNRGEC
heavy 2: not shown
light 2: QAVVTQEPSLTVSPGGTVTLTCRSSTGAVTTSNYANWVQQKPGQAPRGLIGGTNKRAPGVPARFSGSLLGDKAALTLLGAQPEDEAEYYCALWYSNLWVFGQGTKLTVLGQPKAAPSVTLFPPSSEELQANKATLVCLISDFYPGAVTVAWKADSSPVKAGVETTTPSKQSNNKYAASSYLSLTPEQWKSHRSYSCQVTHEGSTVEKTVAPTECS
notes: 1+1 anti-CD79b x CD3 bispecific, IgG1 Fc with knob-in-hole and L234A/L235A; also called 38D9B3.11 x HzSP34.87
B3: 11G10.9.p1/sp34.87 (bispecific antibody, human IgG1, kappa, lambda, L234A L235A)
heavy 1: not shown
light 1: B1 light 1 with P12S, D33E, Q101L, Q105G
heavy 2: not shown
light 2: B2 light 2
notes: also called 11G10.9.p1 x HzSP34.87
B4: 11G10.9.p1/sp34.24 (bispecific antibody, human IgG1, kappa, lambda, L234A L235A)
heavy 1: not shown
light 1: B1 light 1 with P12S, D33E, Q101L, Q105G
heavy 2: not shown
light 2: B2 light 2
notes: also called 11G10.9.p1 x HzSP34.24
B5: 38D9B3.11/sp34.24 (bispecific antibody, human IgG1, kappa, lambda, L234A L235A)
heavy 1: not shown
light 1: B2 light 1
heavy 2: not shown
light 2: B2 light 2
notes: also called 38D9B3.11 x HzSP34.24
B6: 34F1.14/sp34.24 (bispecific antibody, human IgG1, kappa, lambda, L234A L235A)
heavy 1: not shown
light 1: DVVMTQSPLSLPVTLGQPASISCKSSLSLLDSEGKTYLNWFQQRPGQSPRPLISLVSKLDSGVPDRFSGSGSGTDFTLKISRVEAEDVGVYYCWQGTHFPLTFGGGTKVEIKRTVAAPSVFIFPPSDEQLKSGTASVVCLLNNFYPREAKVQWKVDNALQSGNSQESVTEQDSKDSTYSLSSTLTLSKADYEKHKVYACEVTHQGLSSPVTKSFNRGEC
heavy 2: not shown
light 2: B2 light 2
notes: also called 34F1.14 x HzSP34.24
B7: 34F1.14/sp34.87 (bispecific antibody, human IgG1, kappa, lambda, L234A L235A)
heavy 1: not shown
light 1: B6 light 1
heavy 2: not shown
light 2: B2 light 2
notes: also called 34F1.14 x HzSP34.87

biological target: T1, CD79b on the surface of B-cell …; test: flow cytometry on WSU-DLCL2 cells, goat anti-human IgG PE
Description: (§1) The binding ability of the CD79b/CD3 bispecific antibodies for CD79b-positive B-cell non-Hodgkin's lymphoma cell lines was detected by flow cytometry.
(§2) BJAB (AddexBio, USA, Cat #C0003016) and WSU-DLCL2 (Nanjing Kebai Biotechnology Co., Ltd., Cat #CBP60273) were cultured and passaged according to the conventional procedures. Cells were counted after centrifugation and resuspension, adjusted to a density of 4×10⁶ cells/mL, poured into a loading tank, and seeded to a 96-well plate at 50 μL/well using a multichannel pipettor. 50 μL of the antibody sample diluted in gradient was added to the 50 μL of cells in each well, and the mixture was then incubated in an incubator at 5% CO₂ and 37° C. for 30 min. The mixture was centrifuged at 400 g for 5 min, then 200 μL of PBS was added, and the resulting mixture was centrifuged at 400 g for 5 min. This procedure was repeated 3 times. Goat anti-human IgG PE (1:200) was added, and the mixture was incubated for 30 min in the dark at room temperature. The mixture was washed with 200 μL of PBS twice, centrifuged, and then resuspended in 100 μL of PBS, and the values were read using a flow cytometer. The values were fitted to obtain a curve and EC₅₀ values were calculated.

EC50 (read off the curve)	Binder
~20 nM	B1
~9 nM	B2
~30 nM	B3
~30 nM	B4
~10 nM	B5

biological target: T1, CD79b on the surface of B-cell …; test: flow cytometry on BJAB cells, goat anti-human IgG PE
Description: as §1, §2

EC50 (read off the curve)	Binder
~10 nM	B1
~5 nM	B2
~20 nM	B3
~20 nM	B4
~60 nM	B6
~5 nM	B5

biological target: T2, monkey CD3E & CD3G-biotin (Sino …); test: SPR (Biacore T200), biotinylated monkey CD3E&CD3G on streptavidin chip, antibody injected
Description: (§3) The binding kinetics of exemplary anti-CD79b/CD3 antibodies of the present invention for human CD79b, human CD3, and cynomolgus monkey CD3 were determined using surface plasmon resonance (Biacore T200). (1) Affinity assay of antibodies for human CD79b-his (Sino biological): 50 mM N-hydroxysuccinimide (NHS) and 200 mM 1-ethyl-3-(3-dimethylaminopropyl) carbodiimide hydrochloride (EDC) were freshly mixed and activated for 420 s at a flow rate of 10 μL/min. Human CD79b-His antigen was then diluted in 10 mM Acetate (pH 5.0), and after dilution to a concentration of 1 μg/mL, the antigen solution was subjected to coupling and the value was approximately 50 RU. Then 1 M ethanolamine was injected at a flow rate of 10 μL/min for 420 s to block the remaining activation sites. The buffer used in the experiment was HBS-EP+ solution at pH 7.4, and under a high performance mode, the antibodies obtained after 2-fold gradient dilution (0-80 nM) were each injected, according to an ascending order based on concentrations, into the channels 1, 2, 3 and 4 of the chip at a flow rate of 30 μL/min, wherein one cycle was used for determination of one concentration, the binding time was 180 s, and the dissociation time was 600 s. (2) Affinity assay of antibodies for human CD3E & CD3G-biotin (Sino biological) and monkey CD3E & CD3G-biotin (Sino biological): 50 mM NHS and 200 mM EDC were freshly mixed and activated for 420 s at a flow rate of 10 μL/min. Streptavidin (Thermo Fisher scientific) protein was then diluted in 10 mM Acetate (pH 4.5) and after dilution to a concentration of 10 μg/mL, the antigen solution was subjected to coupling and the value was approximately 3000 RU. Then 1 M ethanolamine was injected at a flow rate of 10 μL/min for 420 s to block the remaining activation sites. Human CD3E & CD3G-biotin and monkey CD3E & CD3G-biotin proteins were each immobilized on the chip channels coupled with Streptavidin protein. The antibodies (0-16 nM or 0-40 nM or 0-200 nM) obtained after 2-fold gradient dilution were each injected, according to an ascending order based on concentrations, into the channels 1, 2, 3 and 4 of the chip at a flow rate of 30 μL/min, wherein one cycle was used for determination of one concentration, the binding time was 180 s, and the dissociation time was 300 s.

Kd	koff	kon	Binder
1.52 nM	0.00285 s⁻¹	1.88e+06 M⁻¹ s⁻¹	B1
253 nM	0.0275 s⁻¹	109000 M⁻¹ s⁻¹	B2
202 nM	0.0336 s⁻¹	167000 M⁻¹ s⁻¹	B3
180 nM	0.032 s⁻¹	178000 M⁻¹ s⁻¹	B7
10.7 nM	0.0061 s⁻¹	570000 M⁻¹ s⁻¹	B4
8.75 nM	0.00593 s⁻¹	678000 M⁻¹ s⁻¹	B6
10.9 nM	0.00656 s⁻¹	603000 M⁻¹ s⁻¹	B5

biological target: T4, human CD3E & CD3G-biotin (Sino biological) (human, UniProt P07766 23-126; P09693 23-116, limits assumed); test: SPR (Biacore T200), biotinylated CD3E&CD3G on streptavidin chip, antibody injected
T4 construct: also called Human CD3E&G
T4 sequence (P07766 23-126 limits assumed, chain 1 of 2): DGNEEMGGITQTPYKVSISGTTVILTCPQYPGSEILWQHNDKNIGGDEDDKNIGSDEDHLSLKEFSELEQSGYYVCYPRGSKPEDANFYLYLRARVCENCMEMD
T4 sequence (P09693 23-116 limits assumed, chain 2 of 2): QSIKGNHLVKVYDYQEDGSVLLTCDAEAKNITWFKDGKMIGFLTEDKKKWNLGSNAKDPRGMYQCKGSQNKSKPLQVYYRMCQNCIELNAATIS
Description: as §3

Kd	koff	kon	Binder
1 nM	0.00296 s⁻¹	2.96e+06 M⁻¹ s⁻¹	B1
119 nM	0.0368 s⁻¹	310000 M⁻¹ s⁻¹	B2
107 nM	0.0331 s⁻¹	308000 M⁻¹ s⁻¹	B3
92 nM	0.0315 s⁻¹	342000 M⁻¹ s⁻¹	B7
6.25 nM	0.00531 s⁻¹	851000 M⁻¹ s⁻¹	B4
4.99 nM	0.00512 s⁻¹	1.03e+06 M⁻¹ s⁻¹	B6
6.19 nM	0.00565 s⁻¹	912000 M⁻¹ s⁻¹	B5

biological target: T3, human CD79b-his (Sino biological); test: SPR (Biacore T200), CD79b-His coupled to chip, antibody injected
Description: as §3

Kd	koff	kon	Binder
8.66 nM	0.00701 s⁻¹	809000 M⁻¹ s⁻¹	B1
1.66 nM	0.00031 s⁻¹	187000 M⁻¹ s⁻¹	B2
4.5 nM	0.00208 s⁻¹	461000 M⁻¹ s⁻¹	B3
7.03 nM	0.00207 s⁻¹	295000 M⁻¹ s⁻¹	B7
2.16 nM	0.00176 s⁻¹	815000 M⁻¹ s⁻¹	B4
3.1 nM	0.00161 s⁻¹	519000 M⁻¹ s⁻¹	B6
0.787 nM	0.000268 s⁻¹	341000 M⁻¹ s⁻¹	B5

From patent US20240343799A1 (Innovent, published 2024)
